± gives the standard deviation of the averaged measurements.
Tested on: ATP
Experiment: switch fluorescence ratio, 500 uM ATP over buffer (Cy3 cluster intensity, sum of 5 cycles each) (fold (ratio)); higher = stronger signal-on switching upon ATP binding; sequences stand for … in TCGTCGGCAGCGTCAGATGTGTATAAGAGACAGTTTTTTTTTTTTTTTTTTTTTTTTT…TC
Settings: aptamer strand: ATP DNA aptamer (quencher-CACCTGGGGGAGTATTGCGGAGGAAGG + anchor), 100 nM annealed; ATP concentration: 500 uM
In short: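 For every switch-domain sequence, the fluorescence ratio is the mean of per-cluster values, each being summed target-cycle Cy3 intensity over summed buffer-cycle Cy3 intensity. Clusters outside 100-1000 RFU were excluded. On a modified Illumina MiSeq flow-cell, the Cy3-labelled switching-strand clusters were annealed to 100 nM quencher-labelled ATP aptamer, imaged in selection buffer and then after 15 min with 500 uM ATP at 22 °C. Five such cycles were run, with NaOH stripping and re-annealing between them.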
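Also: ATP exposure 15 min at 22 °C before imaging.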

Sequence | switch fluorescence ratio
AAGTCTATGG | 1 ± 0.054
AGTTCAACCT | 1.65 ± 0.19
TGTTTTAGCT | 0.973 ± 0.021
CCGGGTGGGG | 1.04 ± 0.03
GCTAAAAAGA | 1 ± 0.076
ATAAGGAGGT | 1.012 ± 0.0081
ACAAACTGGT | 1 ± 0.019
TAAAGGTTTT | 0.974 ± 0.04
AATGGGAATG | 1.013 ± 0.0052
CTTTTTGGTA | 0.9975 ± 0.0084
TGGATGTCAG | 0.992 ± 0.054
ATCTAATTAG | 0.963 ± 0.045
GGCGATTGGG | 0.99 ± 0.026
GCCAACAGTG | 1.32 ± 0.12
ACGAATGGTG | 1.02 ± 0.031
TGGGGATCGC | 0.983 ± 0.034
GATATGTGGT | 0.9989 ± 0.004
TTGATAGGGG | 1.01 ± 0.031
CCGAGAGAGC | 1.13 ± 0.04
GCTATCATCG | 0.997 ± 0.035
TAATAAGTTT | 1.0262 ± 0.00033
CCAAGTTCTC | 0.972 ± 0.021
TTACCCGTCA | 1.06 ± 0.044
GTGTGGCTGG | 0.9398 ± 0.0088
GGAGACGGGG | 0.989 ± 0.011

Sequence | switch fluorescence ratio
ATCCAGTGTC | 1.057 ± 0.0061
TCATGCATGT | 1.035 ± 0.01
TTTTACAGTT | 1.02 ± 0.023
GAGGGAGGCT | 1.04 ± 0.015
ACGGGTTGTG | 0.96 ± 0.037
TTTTACTGCT | 1.15 ± 0.18
ACAGGAGAAA | 1.01 ± 0.019
ATTGGGGTGG | 0.935 ± 0.12
TTTAGAGGAA | 0.977 ± 0.032
GGCTCAATGG | 1.04 ± 0.031
TATGTCAAG | 1.02 ± 0.016
TATCGTGAGT | 0.9822 ± 0.0071
GGGAAATTGG | 1 ± 0.031
AGGGTGAGGG | 0.984 ± 0.042
ATGATGATAG | 1.01 ± 0.02
AAGGATGGGG | 0.98 ± 0.022
TTACTGCATT | 1.11 ± 0.014
TTACGTTTTT | 0.999 ± 0.011
CCTGGGAAGA | 1.02 ± 0.017
GGCGGTAGAG | 1.012 ± 0.0091
GAATTATGTT | 1.01 ± 0.004
GGAGGGCGGT | 0.9948 ± 0.0081
AGCTGACTGC | 1.01 ± 0.025
ATACGTTGAA | 1 ± 0.045
TTTGCTTTTC | 0.994 ± 0.05

Sequence | switch fluorescence ratio
AAAGGAACAG | 1.03 ± 0.017
TATTAAGTGC | 0.955 ± 0.039
GTTTTTTATT | 0.996 ± 0.033
TGTTGGGAGG | 0.969 ± 0.017
TTAGCTGTTA | 1 ± 0.016
AAATAATTAG | 1.01 ± 0.016
CCCCCGGGGT | 1.83 ± 0.38
GTCGGCAGGT | 0.994 ± 0.015
GCACTCCAGG | 2.61 ± 0.22
GAACTTGATG | 0.997 ± 0.036
TAGATTAGGA | 1.01 ± 0.036
AGGTTTGTA | 1.04 ± 0.016
TTCGTTTTTC | 0.956 ± 0.035
AAGGCGTGAG | 1.02 ± 0.016
AATATCCTAT | 1.01 ± 0.03
GGATGCTGTG | 0.991 ± 0.013
GAGCTTGAGT | 0.984 ± 0.011
CATAATCCGG | 0.9679 ± 0.0022
CGTTATCGTG | 0.9826 ± 0.0061
TATCGCCGAA | 0.997 ± 0.037
GTGAGTATCG | 0.968 ± 0.0098
GTGGTTGGGT | 0.979 ± 0.023
ATTGATTGAT | 1.02 ± 0.024
CGGTGACGTT | 1.01 ± 0.028
TAGTGCAAGA | 1.0334 ± 0.00052

Sequence | switch fluorescence ratio
CTAATTATGA | 1.01 ± 0.048
ACCATGGGAT | 1.02 ± 0.015
AAAGCAGTTT | 1.05 ± 0.022
ATGGGTCAGT | 0.9872 ± 0.0044
AAGGATGTAT | 0.969 ± 0.036
ACATTAAGTA | 1.02 ± 0.037
CCGTTTGGTT | 0.995 ± 0.064
TTGATGCCCA | 0.97 ± 0.023
GTGTACGTGG | 1.008 ± 0.0057
GGGGATGTTA | 1.01 ± 0.026
GGTTAGTATG | 1.01 ± 0.027
TTTACTAGAT | 1.05 ± 0.012
TAGTCATGAG | 0.981 ± 0.017
TATATTTAGC | 1 ± 0.033
TGGGGGCGGG | 1 ± 0.033
CCTGGGCGGT | 1.32 ± 0.031
GCACTCTGAG | 0.993 ± 0.029
TGTTTGGATT | 0.988 ± 0.013
TCTTCTAA | 0.9972 ± 0.0047
AGGACTTGTC | 0.951 ± 0.01
TATATAATTT | 0.987 ± 0.012
GCATTCGGTT | 0.972 ± 0.039
AATGCACTCG | 1.04 ± 0.05
AGGGTCATTC | 0.975 ± 0.017
TTCCAAGGGT | 1.76 ± 1.5

Sequence | switch fluorescence ratio
TGCTTATCTA | 1.016 ± 0.0077
GTTGCGAATT | 0.971 ± 0.038
TCTAAGCTGG | 0.988 ± 0.014
TGAAAATTAG | 0.9688 ± 0.0049
ATTCGGACGG | 1.026 ± 0.0055
AAGAGGCGGG | 1 ± 0.019
CGAGATGGTT | 0.973 ± 0.025
TTCAAAGGGT | 1.005 ± 0.0049
TTGGAGGCGT | 0.9814 ± 0.0057
GCACATTTGC | 0.95 ± 0.079
TTTGCAAAAA | 1.06 ± 0.082
TTCCAAGATC | 1.18 ± 0.12
GGTGTCTCCC | 1 ± 0.039
CCAGGAAACG | 0.99 ± 0.072
TGGGGAAAGT | 1.03 ± 0.036
ATAGGTGAGA | 1.06 ± 0.02
TATAAGCACG | 1.096 ± 0.0066
GGATGCTCGG | 0.966 ± 0.015
ATGAGGTTAC | 0.988 ± 0.074
GGGACCAGGG | 0.989 ± 0.027
GAGCAGGGCC | 0.982 ± 0.046
CGGGGGTTGA | 1.03 ± 0.03
AGTGGGAGTT | 1.002 ± 0.0081
TATAAAGGGA | 1.04 ± 0.029
TTGATAACAA | 1.04 ± 0.036

Sequence | switch fluorescence ratio
GGTTGTATCG | 1 ± 0.05
ATTAATTTTC | 0.997 ± 0.039
GGGGGGCAAG | 0.9858 ± 0.009
CACGGAAGCG | 1.05 ± 0.032
GGAAATAAGG | 1.01 ± 0.033
CAGGAAGCAG | 1.05 ± 0.09
GGGGGGGTTC | 1 ± 0.028
ATAATGTATA | 0.9835 ± 0.0028
GCAGTTTTTG | 0.9746 ± 0.0056
TTTAGGGTTA | 1.01 ± 0.016
TTGGTTTGTC | 0.99 ± 0.037
AGTTGCGTAG | 0.989 ± 0.021
TCTAAGAGTC | 0.975 ± 0.039
TTTTTGTTTG | 0.985 ± 0.029
TTATCGTTGG | 1 ± 0.031
TGTGTTTAGT | 1.01 ± 0.013
GTCTCAAGTT | 1.02 ± 0.011
TATGGGGTCA | 0.979 ± 0.018
ATATTTGGAG | 0.9981 ± 0.003
GATTGGATGA | 0.992 ± 0.045
TGAAGTGAAT | 1.01 ± 0.011
AAGTATACTT | 0.986 ± 0.0049
TTAAGCCCAT | 1 ± 0.011
ACTGGGAGGC | 1 ± 0.096
ATTAAAGGGT | 1.005 ± 0.0084

Sequence | switch fluorescence ratio
GATCGGGACT | 0.9826 ± 0.0047
TCGGGGTATG | 0.982 ± 0.014
CTGTATGGTA | 1.04 ± 0.045
TTATGTGGGT | 0.989 ± 0.029
TGGAATTTAG | 1.013 ± 0.00072
TTGCGTTGCG | 0.9685 ± 0.0036
TTTTAAAGAG | 0.97 ± 0.024
AGGGAAAGGG | 1.02 ± 0.02
GTGCCGGGTT | 1.03 ± 0.066
TTACGGTGGA | 0.9963 ± 0.0033
GTGGGATTAT | 1 ± 0.019
TAGAGTCGTG | 0.981 ± 0.027
CGCGTACGGA | 0.989 ± 0.005
ATGCCCGTCG | 1.06 ± 0.043
TTACTGGTTA | 1.01 ± 0.029
CGGTTCGGGT | 0.993 ± 0.013
GGTAGAAGGG | 0.989 ± 0.042
TTATAACTCA | 0.997 ± 0.034
TATGTTAGGC | 1.018 ± 0.01
CGTGAAGGTG | 1.24 ± 0.074
CGGCAAGGCT | 1.22 ± 0.1
GGTAGAAGCG | 1.02 ± 0.026
GGAAGGGGGT | 1.01 ± 0.12
GTTATTTAGT | 0.967 ± 0.05
GGGGCCAATT | 1.01 ± 0.032

Sequence | switch fluorescence ratio
ACTATTTGCG | 0.991 ± 0.042
TTCACTGGTC | 1.019 ± 0.0011
GACTCGAAAA | 1.17 ± 0.16
AAAAGATATT | 0.996 ± 0.049
TACAACGTGG | 0.991 ± 0.012
GGGTTAAGGC | 1.01 ± 0.062
TTAAGGCTTT | 0.984 ± 0.025
GCGCTAATTT | 1.28 ± 0.59
GCGCTTGGAA | 1.02 ± 0.049
CCCATTTAGT | 1.04 ± 0.023
TGGGAAGTCC | 1.001 ± 0.0074
TACGGGTAGC | 1.04 ± 0.02
TGGTTGTGAG | 1 ± 0.0065
TGATACTCGC | 1.18 ± 0.12
CAAGTGATAT | 1.05 ± 0.014
TTTATTTGGT | 1.03 ± 0.041
GGGGTTTGGG | 0.974 ± 0.028
ATTGAATTTT | 0.9795 ± 0.0038
GAGTGCTTAA | 0.971 ± 0.022
GAGTGGCTCT | 0.968 ± 0.026
AGTAAGGGCA | 1.01 ± 0.016
TCACTAGATC | 0.998 ± 0.021
CAAAGCTATT | 1.008 ± 0.006
AAGGTATTAG | 0.9926 ± 0.0055
ATTTCTGGGA | 0.982 ± 0.031
